Laboratory results: WO2009041734A1 (dated 2009)

T1: human thrombopoietin receptor (human c-Mpl) (human, UniProt P40238 26-635)
T1 sequence (looked up): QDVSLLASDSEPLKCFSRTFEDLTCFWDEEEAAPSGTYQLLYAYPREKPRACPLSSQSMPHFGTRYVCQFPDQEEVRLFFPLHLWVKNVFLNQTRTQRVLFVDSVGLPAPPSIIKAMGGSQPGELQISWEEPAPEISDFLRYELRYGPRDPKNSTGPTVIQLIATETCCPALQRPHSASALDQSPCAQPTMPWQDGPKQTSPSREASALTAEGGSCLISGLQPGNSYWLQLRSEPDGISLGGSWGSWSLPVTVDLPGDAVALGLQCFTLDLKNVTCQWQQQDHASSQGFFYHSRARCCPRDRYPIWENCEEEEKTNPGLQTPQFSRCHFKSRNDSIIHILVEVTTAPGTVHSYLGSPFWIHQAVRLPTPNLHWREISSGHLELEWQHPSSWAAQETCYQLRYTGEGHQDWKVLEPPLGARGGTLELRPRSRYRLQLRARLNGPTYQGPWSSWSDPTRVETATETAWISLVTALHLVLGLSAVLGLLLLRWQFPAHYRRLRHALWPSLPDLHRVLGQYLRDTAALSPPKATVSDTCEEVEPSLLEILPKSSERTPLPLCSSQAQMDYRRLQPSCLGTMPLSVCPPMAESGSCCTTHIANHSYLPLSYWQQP


Legend:
[1] = molecular target: T1, human thrombopoietin receptor (human …); experiment: cell-based or functional assay
[2] = molecular target: T1, human thrombopoietin receptor (human …); experiment: flow cytometry on FM3A-hMpl cells, antibody at 1, 0.1, 0.01 ug/mL

Binder | UT7/TPO (Max), maximum activity relative to PEG-rHuMGDF [1] | agonist activity relative to 7-10G4344uhm, UT-7/TPO cell proliferation assay [1] | binding activity relative to 7-10G4344uhm [2]
7-10G4344uhm light chain mutant 7-10VL_Y94F (antibody, V domains shown) VH: EVQLVESGGGLVQPGRSLRLSCAASGFTFDDYAMHWVRQAPGKGLEWVSGISWNSGSIGYADSVKGRFTISRDNAKNSLYLQMNSLRAEDTALYYCAKNLWFGEFRYWYFDLWGRGTLVTVSS VL: AIQLTQSPSSLSASVGDRVTITCRASQGISSALAWYQQKPGKAPKLLIYDASSLESGVPSRFSGSGSGTDFTLTISSLQPEDFATYYCQQFNSFPLTFGGGTKVEIK | – | ~0.1 fold of 7-10G4344uhm | ~0.1 fold of 7-10G4344uhm
anti-human c-Mpl agonist antibody 4-49 (IgG1) (antibody, V domains shown) VH: EEQLVESGGGLVQPGRSLRLSCTASGFTFDDYAMYWVRQVPGKGLEWVSGISWNSGSIGYADSVKGRFTVSRDNAKNSLYLQMNSLRAEDTALYYCAKALWFGEFPHYYGMDVWGQGTTVTVSS VL: AIQLTQSPSSLSASVGDRVTITCRASQGISSTLAWYQQKPGKAPKLLIYDASSLESGVPSRFSGSGSGTDFTLTISSLQPEDFATYYCQQFNSYPYTFGQGTKLEIKR | > 80% | – | –

Other lines, results leading:

UT7/TPO (Max), maximum activity relative to PEG-rHuMGDF [1] | agonist activity relative to 7-10G4344uhm, UT-7/TPO cell proliferation assay [1] | binding activity relative to 7-10G4344uhm [2] | Binder
> 50% | – | – | anti-human c-Mpl agonist antibody 6-5-2 (IgG1) (antibody, V domains shown) VH: EVQLVECGGGLVQPGRSLRLSCAASGFTFDDYAMHWVRQAPGKGLEWVSGISWNSGSIGYADSVKGRFTISRDNAKNSLYLQMNSLRAEDTALYYCAKPIWFGEWGNYYGMDVWGQGTTVTVSS VL: not shown
> 90% | – | – | anti-human c-Mpl agonist antibody 7-10 (IgG1) (antibody, V domains shown) VH: EVQLVESGGGLVQPGRSLRLSCAASGFTFDDYAMHWVRQAPGKGLEWVSGISWNSGSIGYADSVKGRFTISRDNAKNSLYLQMNSLRAEDTALYYCAKNLWFGEFRYWYFDLWGRGTLVTVSS VL: AIQLTQSPSSLSASVGDRVTITCRASQGISSALAWYQQKPGKAPKLLIYDASSLESGVPSRFSGSGSGTDFTLTISSLQPEDFATYYCQQFNSYPLTFGGGTKVEIK
> 80% | – | – | anti-human c-Mpl agonist antibody 6-4-50 (IgG1) (antibody, V domains shown) VH: EVQLVESGGGLVQPGRSLRLSCATSGFTFDNYAMYWVRQAPGKGLEWVSGISWNSGDIGYADSVKGRFTISRDNAKNSLYLQMNSLRAEDTALYYCARDAGFGEFHYGLDVWGQGTTVTVSS VL: AIQLTQSPSSLSASVGDRVTITCRASQGISSALAWYQQKPGKVPKLLIYDASSLESGVPSRFSGSGSGTDFTLTISSLQPEDFATYYCQQFNSYPWTFGQGTKVEIKR
